Where “and” joins values, the source holds several entries; their conditions need not be identical. Equal entries are not always repeated.
System: not listed separately
Assay: GLP aggregation assay (turbidity at 350 nm)
Type: physicochemical
Details: compared to GLP-1(7-37)OH or Val^8-GLP-1(7-37)OH
Description: GLP peptides can be analyzed with respect to their potential to aggregate in solution.
In general, peptides in solution are stirred at elevated temperature in a suitable buffer while recording turbidity at 350 nm as a function of time. Time to the onset of aggregation is measured to quantify the potential of a given GLP molecule to aggregate under these stressed conditions.
A GLP-1 compound is first dissolved under alkaline conditions (pH 10.5) for 30 minutes to dissolve any pre-aggregated material. The solution is then adjusted to pH 7.4 and filtered. Specifically, 4 mg of a lyophilized GLP-1 compound is dissolved in 3 ml of 10 mM phosphate/10 mM citrate. The pH is adjusted to 10.0-10.5 and held for 30 minutes. The solution is adjusted with HCl to pH 7.4 and filtered through a suitable filter, for example a Millex GV syringe filter (Millipore Corporation, Bedford, Mass.). This solution is then diluted to a final sample containing 0.3 mg/mL protein in 10 mM citrate, 10 mM phosphate, 150 mM NaCl, and adjusted to pH 7.4 to 7.5. The sample is incubated at 37° C. in a quartz cuvette. Every five minutes the turbidity of the solution is measured at 350 nm on an AVIV Model 14DS UV-VIS spectrophotometer (Lakewood, N.J.). For 30 seconds prior to and during the measurement the solution is stirred using a magnetic stir bar from Stama Cells, Inc. (Atascadero, Calif.). An increase in OD at 350 nm indicates aggregation of the GLP-peptide. The time to aggregation is approximated by the intersection of linear fits to the pre-growth and growth phase according to method of Drake(Arvinte T, Cudd A, and Drake A F.(1993) J. Bio. Chem. 268, 6415-6422).
The cuvette is cleaned between experiments with a caustic soap solution (e.g., Contrad-70).
The results for a number of GLP-1 compounds are reported in Table 8 as the time in hours required for the compound to aggregate.

Substance | propensity to aggregate in solution
Val^8-Glu^22-GLP-1(7-37)OH (HVEGTFTSDVSSYLEEQAAKEFIAWLVKGRG) | markedly decreased propensity to aggregate
Val^8-Glu^30-GLP-1(7-37)OH (HVEGTFTSDVSSYLEGQAAKEFIEWLVKGRG) | markedly decreased propensity to aggregate
Val^8-His^37-GLP-1(7-37)OH (HVEGTFTSDVSSYLEGQAAKEFIAWLVKGRH) | markedly decreased propensity to aggregate

System: not listed separately
Assay: GLP-1 compound/soluble basal insulin mixtures: clarity and final concentrations by HPLC
Type: physicochemical
Details: 2.1 mg in 1 ml 0.01 N HCl, pH 11.3 then adjusted to 4.0
Description: Exendin-4 (160 μg) was dissolved in 100 μL of commercial Lantus® insulin ([…], 3.6378 mg/mL). […] The solution was stored at 5° C. […] The pH was 4.0 Final concentrations of Exendin-4 and Lantus® were determined by reverse phase HPLC to be 0.9 mg/mL Exendin-4 and 3.5 mg/mL Lantus®. Based on known concentrations of excipients in the commercial formulation of Lantus®, the final concentrations of excipients in the mixture were as follows: 2.7 mg/mL m-cresol, 30 μg/mL zinc, and 17 mg/ml glycerol.
Exendin-4 (290 μg) was dissolved in 100 μL of commercial Lantus® insulin U100, 3.6378 mg/mL). […] The pH of the solution was adjusted to 4.0 with NaOH. Final concentrations of Exendin-4 and Lantus® were determined by reverse phase HPLC to be 1.6 mg/mL Exendin-4 and 3.5 mg/mL Lantus®. […]
Exendin-4 (529 μg) was dissolved in 500 μL of commercial Lantus® insulin (U100, 3.6378 mg/mL). […] Final concentrations of Exendin-4 and Lantus® were calculated to be 1 mg/mL Exendin-4 and 3.5 mg/mL Lantus®. […]
A stock solution of Val^8-Glu^22-GLP-1(7-37)OH was prepared by dissolving 2.1 mg of Val^8-Glu^22-GLP-1(7-37)OH in 1 ml of 0.01 N HCl. […] Final concentrations of Val^8-Glu^22-GLP-1(7-37)OH and Lantus® were determined by reverse phase HPLC to be 0.5 mg/mL Val^8-Glu^22-GLP-1(7-37)OH and 2.4 mg/mL Lantus®. […]

Substance | appearance of stock solution
Val^8-Glu^22-GLP-1(7-37)OH (HVEGTFTSDVSSYLEEQAAKEFIAWLVKGRG) | remained clear

Same assay, conditions: 4.8 mg in 1.5 ml Stock solution A (glycerin, meta-cresol, zinc), pH 11 then adjusted to 4.0

Substance | appearance of stock solution
Val^8-Glu^22-GLP-1(7-37)OH (HVEGTFTSDVSSYLEEQAAKEFIAWLVKGRG) | remained clear

Molecular target: T1, human GLP-1 receptor (Homo sapiens, UniProt P43220)
T1 construct: expressed in transfected cells; host or cells: HEK-293 Aurora CRE-BLAM cells
T1 sequence (P43220 24-463): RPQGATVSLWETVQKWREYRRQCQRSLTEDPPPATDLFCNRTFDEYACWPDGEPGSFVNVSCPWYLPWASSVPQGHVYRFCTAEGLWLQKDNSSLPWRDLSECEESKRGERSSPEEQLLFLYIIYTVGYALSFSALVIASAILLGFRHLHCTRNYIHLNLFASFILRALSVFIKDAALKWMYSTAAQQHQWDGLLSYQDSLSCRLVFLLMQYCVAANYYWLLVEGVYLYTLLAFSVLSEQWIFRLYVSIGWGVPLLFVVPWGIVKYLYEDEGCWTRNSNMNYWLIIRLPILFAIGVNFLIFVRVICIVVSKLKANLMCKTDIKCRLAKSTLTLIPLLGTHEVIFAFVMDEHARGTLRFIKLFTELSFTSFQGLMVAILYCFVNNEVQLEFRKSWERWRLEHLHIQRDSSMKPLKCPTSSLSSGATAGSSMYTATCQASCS
Assay: GLP-1 receptor activation (in vitro potency, CRE-BLAM fluorescence assay)
Type: cell-based
Details: relative in vitro potency from EC50, HEK-293 Aurora CRE-BLAM cells; Val^8-GLP-1(7-37)OH control = 1
Text: These HEK-293 cells have stably integrated a DNA vector having a cAmp response element (CRE) driving expression of the β-lactamase (BLAM) gene. […] The assay is further described in Zlokarnik, et al., (1998) Science 279:84-88 (See also Example 1).

GLP-1 receptor activation relative to Val^8-GLP-1(7-37)OH | Substance
2.4 and 1.9 | Val^8-Cys^16-Lys^26-Arg^34-GLP-1(7-37)OH
4.7 and 3.8 and 3.4 | Val^8-Glu^22-Ile^33-GLP-1(7-37)OH (HVEGTFTSDVSSYLEEQAAKEFIAWLIKGRG)
4.9 and 4.6 | Val^8-Trp^16-Glu^22-GLP-1(7-37)OH (HVEGTFTSDWSSYLEEQAAKEFIAWLVKGRG)
3.6 and 3.8 | Val^8-Tyr^16-Glu^22-GLP-1(7-37)OH (HVEGTFTSDYSSYLEEQAAKEFIAWLVKGRG)
5.1 and 5.9 | Val^8-Tyr^18-Glu^22-GLP-1(7-37)OH (HVEGTFTSDVSYYLEEQAAKEFIAWLVKGRG)
1.1 | Val^8-Val^16-GLP-1(7-37)OH

The next lines start with the substance.

Substance | GLP-1 receptor activation relative to Val^8-GLP-1(7-37)OH
Val^8-Cys^16-Lys^26-GLP-1(7-37)OH | 4.2
Val^8-Glu^22-Val^25-GLP-1(7-37)OH (HVEGTFTSDVSSYLEEQAVKEFIAWLVKGRG) | 4.7 and 2.9
Val^8-Glu^22-Val^25-Ile^33-GLP-1(7-37)OH (HVEGTFTSDVSSYLEEQAVKEFIAWLIKGRG) | 4.9 and 5.8 and 6.7

Reference: US7238663B2, “Pre-mixes of GLP-1 and basal insulin” (Eli Lilly and Company, priority 2001, dated 2007)
